First the molecules themselves.
B1: Splicing factor 3A subunit 1 (Homo sapiens), Q15459 (parent)
chain: MPAGPVQAVPPPPPVPTEPKQPTEEEASSKEDSAPSKPVVGIIYPPPEVRNIVDKTASFVARNGPEFEARIRQNEINNPKFNFLNPNDPYHAYYRHKVSEFKEGKAQEPSAAIPKVMQQQQQTTQQQLPQKVQAQVIQETIVPKEPPPEFEFIADPPSISAFDLDVVKLTAQFVARNGRQFLTQLMQKEQRNYQFDFLRPQHSLFNYFTKLVEQYTKILIPPKGLFSKLKKEAENPREVLDQVCYRVEWAKFQERERKKEEEEKEKERVAYAQIDWHDFVVVETVDFQPNEQGNFPPPTTPEELGARILIQERYEKFGESEEVEMEVESDEEDDKQEKAEEPPSQLDQDTQVQDMDEGSDDEEEGQKVPPPPETPMPPPLPPTPDQVIVRKDYDPKASKPLPPAPAPDEYLVSPITGEKIPASKMQEHMRIGLLDPRWLEQRDRSIREKQSDDEVYAPGLDIESSLKQLAERRTDIFGVEETAIGKKIGEEEIQKPEEKVTWDGHSGSMARTQQAAQANITLQEQIEAIHKAKGLVPEDDTKEKIGPSKPNEIPQQPPPPSSATNIPSSAPPITSVPRPPTMPPPVRTTVVSAVPVMPRPPMASVVRLPPGSVIAPMPPIIHAPRINVVPMPPSAPPIMAPRPPPMIVPTAFVPAPPVAPVPAPAPMPPVHPPPPMEDEPTSKKLKTEDSLMPEEEFLRRNKGPVSIKVQVPNMQDKTEWKLNGQVLVFTLPLTDQVSVIKVKIHEATGMPAGKQKLQYEGIFIKDSNSLAYYNMANGAVIHLALKERGGRKK
partner: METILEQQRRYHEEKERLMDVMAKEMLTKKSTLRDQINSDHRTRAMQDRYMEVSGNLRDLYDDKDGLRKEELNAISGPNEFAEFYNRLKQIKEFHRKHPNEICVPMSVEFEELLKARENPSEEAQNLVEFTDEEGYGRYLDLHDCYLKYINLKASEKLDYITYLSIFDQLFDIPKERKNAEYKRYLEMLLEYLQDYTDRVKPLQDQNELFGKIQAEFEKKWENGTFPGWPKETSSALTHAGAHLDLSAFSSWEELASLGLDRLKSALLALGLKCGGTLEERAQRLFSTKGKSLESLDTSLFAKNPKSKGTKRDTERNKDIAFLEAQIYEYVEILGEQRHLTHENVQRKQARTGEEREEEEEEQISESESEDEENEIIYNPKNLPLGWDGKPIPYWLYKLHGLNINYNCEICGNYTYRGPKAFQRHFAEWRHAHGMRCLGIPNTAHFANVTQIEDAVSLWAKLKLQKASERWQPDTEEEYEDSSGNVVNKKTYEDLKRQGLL

The variants in one assay derive from B1. Particulars: with sf3a3_human SF3A3, Q12874.
As to L169K, the “effect of a mutation on the interaction” value is given as “disrupting interaction”.

The variants in another assay derive from B1. As to conditions: with sf3a3_human SF3A3, Q12874. The source holds these as a separate data set.
In the case of K55L, the “effect of a mutation on the interaction” value is reported as “increasing interaction”.
